This note sets out measurements from the RNAGym collection of RNA variant scans (doi:10.7554/elife.80360).

To fix the notation:
B1: CPEB3 Ribozyme (parent)
chain: GGGGGCCACAGCAGAAGCGUUCACGUCGCGGCCCCUGUCAGAUUCUGGUGAAUCUGCGAAUUCUGCUGU

Variants of B1 are the subject of the data set. In words: self-cleavage, relative activity (ratio to wild type); higher = more cleavage; co-transcriptional.
On to GGGGGCCACAGCAGAAGCGUUCACGUCGCGGCCCCUGUCAGAUUCUGGUGAAUCUGCGCAUUGUGCUGU, for which the self-cleavage was 0.316.

Take GGGGGCCACAGCAGAAGCGUUCACGUCGCGGCCCCUGUCAGAUUCUGGUGAAUCUGCGCAUUUUGCUGU: the self-cleavage was 0.633.

Regarding GGGGGCCACAGCAGAAGCGUUCACGUCGCGGCCCCUGUCAGAUUCUGGUGAAUCUGCGCAGUCUGCUGU, the self-cleavage was 0.359.

For GGGGGCCACAGCAGAAGCGUUCACGUCGCGGCCCCUGUCAGAUUCUGGUGAAUCUGCGCAAUCUGCUGU, the self-cleavage was 0.483.

Turning to GGGGGCCACAGCAGAAGCGUUCACGUCGCGGCCCCUGUCAGAUUCUGGUGAAUCUGCGGCUUCUGCUGU, the self-cleavage was 0.238.

With GGGGGCCACAGCAGAAGCGUUCACGUCGCGGCCCCUGUCAGAUUCUGGUGAAUCUGCCAAUUCGGCUGU, the self-cleavage was 0.893.

GGGGGCCACAGCAGAAGCGUUCACGUCGCGGCCCCUGUCAGAUUCUGGUGAAUCUGCGAGUACUGCUGU: the self-cleavage was determined as 0.576.

For the variant GGGGGCCACAGCAGAAGCGUUCACGUCGCGGCCCCUGUCAGAUUCUGGUGAAUCUGCGAUUUCUCCUGU, the self-cleavage came out at 0.362.

For GGGGGCCACAGCAGAAGCGUUCACGUCGCGGCCCCUGUCAGAUUCUGGUGAAUCUGCGACCUCUGCUGU, the self-cleavage was found to be 0.355.

For the variant GGGGGCCACAGCAGAAGCGUUCACGUCGCGGCCCCUGUCAGAUUCUGGUGAAUCUGCUAAUUCUGCUGU, the self-cleavage is 0.994.

For GGGGGCCACAGCAGAAGCGUUCACGUCGCGGCCCCUGUCAGAUUCUGGUGAAUCUGCGACUUCUGAUGU, the self-cleavage came out at 0.288.

Turning to GGGGGCCACAGCAGAAGCGUUCACGUCGCGGCCCCUGUCAGAUUCUGGUGAAUCUGCGACUUAUGCUGU, the self-cleavage turned out to be 0.405.

Consider GGGGGCCACAGCAGAAGCGUUCACGUCGCGGCCCCUGUCAGAUUCUGGUGAAUCUGCGGAUUCUACUGU, for which the self-cleavage was found to be 0.895.

Turning to GGGGGCCACAGCAGAAGCGUUCACGUCGCGGCCCCUGUCAGAUUCUGGUGAAUCUGCCAAUUCUGCGGU, the self-cleavage worked out at 1.01.

For the variant GGGGGCCACAGCAGAAGCGUUCACGUCGCGGCCCCUGUCAGAUUCUGGUGAAUCUGCGAUUUCUGGUGU, the self-cleavage was 0.405.

For the variant GGGGGCCACAGCAGAAGCGUUCACGUCGCGGCCCCUGUCAGAUUCUGGUGAAUCUGCGAUUUCUGAUGU, the self-cleavage was 0.403.

As to GGGGGCCACAGCAGAAGCGUUCACGUCGCGGCCCCUGUCAGAUUCUGGUGAAUCUGCUGAUUCUGCUGU, the self-cleavage is 1.02.

Consider GGGGGCCACAGCAGAAGCGUUCACGUCGCGGCCCCUGUCAGAUUCUGGUGAAUCUGCGAGUUCUGCUCU, for which the self-cleavage is 0.889.

Consider GGGGGCCACAGCAGAAGCGUUCACGUCGCGGCCCCUGUCAGAUUCUGGUGAAUCUGCGAGUUCUGCUAU, for which the self-cleavage came out at 0.987.

As to GGGGGCCACAGCAGAAGCGUUCACGUCGCGGCCCCUGUCAGAUUCUGGUGAAUCUGCGAGUUCUGCUGC, the self-cleavage was 1.03.

GGGGGCCACAGCAGAAGCGUUCACGUCGCGGCCCCUGUCAGAUUCUGGUGAAUCUGCGAGUUCUGCUGA: the self-cleavage worked out at 0.994.

For the variant GGGGGCCACAGCAGAAGCGUUCACGUCGCGGCCCCUGUCAGAUUCUGGUGAAUCUGCGACUUCUGCUGG, the self-cleavage was 0.418.

As for GGGGGCCACAGCAGAAGCGUUCACGUCGCGGCCCCUGUCAGAUUCUGGUGAAUCUGCGACUUCUGCUGA, the self-cleavage was found to be 0.474.

As for GGGGGCCACAGCAGAAGCGUUCACGUCGCGGCCCCUGUCAGAUUCUGGUGAAUCUGCGGAUUCGGCUGU, the self-cleavage was 0.835.

Take GGGGGCCACAGCAGAAGCGUUCACGUCGCGGCCCCUGUCAGAUUCUGGUGAAUCUGCGGAUUCUGUUGU: the self-cleavage was 0.979.

Consider GGGGGCCACAGCAGAAGCGUUCACGUCGCGGCCCCUGUCAGAUUCUGGUGAAUCUGCUACUUCUGCUGU, for which the self-cleavage worked out at 0.372.

For the variant GGGGGCCACAGCAGAAGCGUUCACGUCGCGGCCCCUGUCAGAUUCUGGUGAAUCUGCUAAUUCUUCUGU, the self-cleavage was determined as 0.948.

With GGGGGCCACAGCAGAAGCGUUCACGUCGCGGCCCCUGUCAGAUUCUGGUGAAUCUGCUAAUUCUACUGU, the self-cleavage was determined as 0.961.

Regarding GGGGGCCACAGCAGAAGCGUUCACGUCGCGGCCCCUGUCAGAUUCUGGUGAAUCUGCGAUUUCUGCUAU, the self-cleavage amounted to 0.637.

GGGGGCCACAGCAGAAGCGUUCACGUCGCGGCCCCUGUCAGAUUCUGGUGAAUCUGCGAUUUCUGCUCU: the self-cleavage came to 0.556.

As for GGGGGCCACAGCAGAAGCGUUCACGUCGCGGCCCCUGUCAGAUUCUGGUGAAUCUGCGAUUUCUGCUUU, the self-cleavage is 0.66.

Regarding GGGGGCCACAGCAGAAGCGUUCACGUCGCGGCCCCUGUCAGAUUCUGGUGAAUCUGCGUAUUCUGGUGU, the self-cleavage was determined as 0.592.

Turning to GGGGGCCACAGCAGAAGCGUUCACGUCGCGGCCCCUGUCAGAUUCUGGUGAAUCUGCGUAUUCUGAUGU, the self-cleavage is 0.503.

Regarding GGGGGCCACAGCAGAAGCGUUCACGUCGCGGCCCCUGUCAGAUUCUGGUGAAUCUGCGCAUACUGCUGU, the self-cleavage was found to be 0.406.

For the variant GGGGGCCACAGCAGAAGCGUUCACGUCGCGGCCCCUGUCAGAUUCUGGUGAAUCUGCGACUACUGCUGU, the self-cleavage is 0.396.

GGGGGCCACAGCAGAAGCGUUCACGUCGCGGCCCCUGUCAGAUUCUGGUGAAUCUGCGACUCCUGCUGU: the self-cleavage is 0.398.

In the case of GGGGGCCACAGCAGAAGCGUUCACGUCGCGGCCCCUGUCAGAUUCUGGUGAAUCUGCGAGCUCUGCUGU, the self-cleavage stood at 0.365.

Consider GGGGGCCACAGCAGAAGCGUUCACGUCGCGGCCCCUGUCAGAUUCUGGUGAAUCUGCGUAUUAUGCUGU, for which the self-cleavage was determined as 0.377.

Turning to GGGGGCCACAGCAGAAGCGUUCACGUCGCGGCCCCUGUCAGAUUCUGGUGAAUCUGCCAAUUCUGCUGC, the self-cleavage was 1.07.

On to GGGGGCCACAGCAGAAGCGUUCACGUCGCGGCCCCUGUCAGAUUCUGGUGAAUCUGCGGAUACUGCUGU, for which the self-cleavage was 0.918.

Consider GGGGGCCACAGCAGAAGCGUUCACGUCGCGGCCCCUGUCAGAUUCUGGUGAAUCUGCUAAAUCUGCUGU, for which the self-cleavage turned out to be 0.929.

Consider GGGGGCCACAGCAGAAGCGUUCACGUCGCGGCCCCUGUCAGAUUCUGGUGAAUCUGCGAGUUCUCCUGU, for which the self-cleavage turned out to be 0.362.

On to GGGGGCCACAGCAGAAGCGUUCACGUCGCGGCCCCUGUCAGAUUCUGGUGAAUCUGCGACUUCUGCUAU, for which the self-cleavage was 0.454.

As for GGGGGCCACAGCAGAAGCGUUCACGUCGCGGCCCCUGUCAGAUUCUGGUGAAUCUGCCAAUGCUGCUGU, the self-cleavage was found to be 0.965.

As for GGGGGCCACAGCAGAAGCGUUCACGUCGCGGCCCCUGUCAGAUUCUGGUGAAUCUGCGGAUUCUGCUCU, the self-cleavage worked out at 1.02.

For GGGGGCCACAGCAGAAGCGUUCACGUCGCGGCCCCUGUCAGAUUCUGGUGAAUCUGCGAGUUCUGCAGU, the self-cleavage turned out to be 0.944.

Take GGGGGCCACAGCAGAAGCGUUCACGUCGCGGCCCCUGUCAGAUUCUGGUGAAUCUGCGUAUUCUGCUUU: the self-cleavage worked out at 0.924.

As for GGGGGCCACAGCAGAAGCGUUCACGUCGCGGCCCCUGUCAGAUUCUGGUGAAUCUGCGUAUUCUGCUAU, the self-cleavage was 0.957.

Regarding GGGGGCCACAGCAGAAGCGUUCACGUCGCGGCCCCUGUCAGAUUCUGGUGAAUCUGCGACUUCCGCUGU, the self-cleavage worked out at 0.452.

For the variant GGGGGCCACAGCAGAAGCGUUCACGUCGCGGCCCCUGUCAGAUUCUGGUGAAUCUGCGAGUUCGGCUGU, the self-cleavage is 0.493.

For GGGGGCCACAGCAGAAGCGUUCACGUCGCGGCCCCUGUCAGAUUCUGGUGAAUCUGCGAGUUCCGCUGU, the self-cleavage came to 0.491.

On to GGGGGCCACAGCAGAAGCGUUCACGUCGCGGCCCCUGUCAGAUUCUGGUGAAUCUGCGAGUUCAGCUGU, for which the self-cleavage amounted to 0.493.

GGGGGCCACAGCAGAAGCGUUCACGUCGCGGCCCCUGUCAGAUUCUGGUGAAUCUGCGCUUUCUGCUGU: the self-cleavage was found to be 0.378.

For the variant GGGGGCCACAGCAGAAGCGUUCACGUCGCGGCCCCUGUCAGAUUCUGGUGAAUCUGCGCAUUCCGCUGU, the self-cleavage was 0.586.

GGGGGCCACAGCAGAAGCGUUCACGUCGCGGCCCCUGUCAGAUUCUGGUGAAUCUGCUAAUUCUGCUGA: the self-cleavage is 1.02.

Regarding GGGGGCCACAGCAGAAGCGUUCACGUCGCGGCCCCUGUCAGAUUCUGGUGAAUCUGCUAAUUCUGCUGC, the self-cleavage is 1.06.

Take GGGGGCCACAGCAGAAGCGUUCACGUCGCGGCCCCUGUCAGAUUCUGGUGAAUCUGCGAUUUCUGCUGU: the self-cleavage was found to be 0.526.

For GGGGGCCACAGCAGAAGCGUUCACGUCGCGGCCCCUGUCAGAUUCUGGUGAAUCUGCGAGUUCUGCUGU, the self-cleavage amounted to 0.954.

GGGGGCCACAGCAGAAGCGUUCACGUCGCGGCCCCUGUCAGAUUCUGGUGAAUCUGCGACUUCUGCUGU: the self-cleavage worked out at 0.359.

As for GGGGGCCACAGCAGAAGCGUUCACGUCGCGGCCCCUGUCAGAUUCUGGUGAAUCUGCGCAUUCUGCUGU, the self-cleavage worked out at 0.788.

Turning to GGGGGCCACAGCAGAAGCGUUCACGUCGCGGCCCCUGUCAGAUUCUGGUGAAUCUGCGGAUUCUGCUGU, the self-cleavage turned out to be 0.997.

In the case of GGGGGCCACAGCAGAAGCGUUCACGUCGCGGCCCCUGUCAGAUUCUGGUGAAUCUGCGUAUUCUGCUGU, the self-cleavage was 0.854.

Regarding GGGGGCCACAGCAGAAGCGUUCACGUCGCGGCCCCUGUCAGAUUCUGGUGAAUCUGCGUAUUCUGCUGA, the self-cleavage amounted to 0.901.

Consider GGGGGCCACAGCAGAAGCGUUCACGUCGCGGCCCCUGUCAGAUUCUGGUGAAUCUGCGUAUUCUGCUGG, for which the self-cleavage is 0.903.

With GGGGGCCACAGCAGAAGCGUUCACGUCGCGGCCCCUGUCAGAUUCUGGUGAAUCUGCGGAGUCUGCUGU, the self-cleavage was 0.941.

Regarding GGGGGCCACAGCAGAAGCGUUCACGUCGCGGCCCCUGUCAGAUUCUGGUGAAUCUGCGGAAUCUGCUGU, the self-cleavage worked out at 0.916.

Turning to GGGGGCCACAGCAGAAGCGUUCACGUCGCGGCCCCUGUCAGAUUCUGGUGAAUCUGCGGAUUUUGCUGU, the self-cleavage came to 1.01.

For the variant GGGGGCCACAGCAGAAGCGUUCACGUCGCGGCCCCUGUCAGAUUCUGGUGAAUCUGCGGAUUCUGCUGC, the self-cleavage was 1.06.

On to GGGGGCCACAGCAGAAGCGUUCACGUCGCGGCCCCUGUCAGAUUCUGGUGAAUCUGCGUAUUCUGCGGU, for which the self-cleavage worked out at 0.79.

For GGGGGCCACAGCAGAAGCGUUCACGUCGCGGCCCCUGUCAGAUUCUGGUGAAUCUGCGCAUUCUGCGGU, the self-cleavage turned out to be 0.772.

As to GGGGGCCACAGCAGAAGCGUUCACGUCGCGGCCCCUGUCAGAUUCUGGUGAAUCUGCGCAUUCUGUUGU, the self-cleavage amounted to 0.727.

As for GGGGGCCACAGCAGAAGCGUUCACGUCGCGGCCCCUGUCAGAUUCUGGUGAAUCUGCGCAUUCUGCUCU, the self-cleavage was determined as 0.909.

Take GGGGGCCACAGCAGAAGCGUUCACGUCGCGGCCCCUGUCAGAUUCUGGUGAAUCUGCGACUUCUUCUGU: the self-cleavage was found to be 0.308.

GGGGGCCACAGCAGAAGCGUUCACGUCGCGGCCCCUGUCAGAUUCUGGUGAAUCUGCGACUUCUACUGU: the self-cleavage was 0.438.

For the variant GGGGGCCACAGCAGAAGCGUUCACGUCGCGGCCCCUGUCAGAUUCUGGUGAAUCUGCGCAUUCUACUGU, the self-cleavage is 0.496.

On to GGGGGCCACAGCAGAAGCGUUCACGUCGCGGCCCCUGUCAGAUUCUGGUGAAUCUGCGCAUUCUUCUGU, for which the self-cleavage amounted to 0.342.

In the case of GGGGGCCACAGCAGAAGCGUUCACGUCGCGGCCCCUGUCAGAUUCUGGUGAAUCUGCUAAUUCUGGUGU, the self-cleavage was 0.974.

Take GGGGGCCACAGCAGAAGCGUUCACGUCGCGGCCCCUGUCAGAUUCUGGUGAAUCUGCUAAUUAUGCUGU: the self-cleavage worked out at 0.951.
